Results: patent EP4473018A2 (dated 2024)

Assays:
[1] = target: T1, Human B7-H3 protein (UniProt Q5ZPR3-1) on cells (human, UniProt Q5ZPR3 29-534); assay: flow cytometry on human osteosarcoma U2OS cells
T1 construct: This is endogenous B7-H3 on U2OS, SK-N-BE(2), A375, A549 and Panc-1 cells, on monocyte-derived dendritic cells and in patient tumour tissue; also called CD276; surface antigen expressed by human cancer cells
T1 sequence: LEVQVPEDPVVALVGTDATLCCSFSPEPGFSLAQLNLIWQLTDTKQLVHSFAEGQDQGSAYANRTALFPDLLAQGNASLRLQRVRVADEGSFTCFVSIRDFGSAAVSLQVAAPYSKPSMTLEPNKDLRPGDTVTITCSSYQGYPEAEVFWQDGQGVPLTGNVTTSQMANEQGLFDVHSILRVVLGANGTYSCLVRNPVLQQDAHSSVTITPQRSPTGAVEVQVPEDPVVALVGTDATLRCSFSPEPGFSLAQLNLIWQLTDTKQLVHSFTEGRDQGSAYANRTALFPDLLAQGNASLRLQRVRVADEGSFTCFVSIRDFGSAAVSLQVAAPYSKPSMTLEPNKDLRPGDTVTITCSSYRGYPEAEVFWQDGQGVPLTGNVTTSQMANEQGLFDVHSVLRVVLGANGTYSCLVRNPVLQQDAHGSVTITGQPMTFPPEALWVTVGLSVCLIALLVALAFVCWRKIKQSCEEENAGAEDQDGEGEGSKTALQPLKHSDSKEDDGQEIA

[2] = target: T2, Recombinant truncated human his-tag B7-H3 protein (amino acids 1-461 of SEQ ID NO:1 with a carboxy terminal … (human, UniProt Q5ZPR3 29-461)); assay: SPR (Biacore T200), antibody captured by anti-human Fc, his-tagged B7-H3 as analyte from 100 nM, 1:1 model
T2 construct: also called his-tagged B7-H3 protein; recombinant human his-tagged B7-H3 protein
T2 sequence: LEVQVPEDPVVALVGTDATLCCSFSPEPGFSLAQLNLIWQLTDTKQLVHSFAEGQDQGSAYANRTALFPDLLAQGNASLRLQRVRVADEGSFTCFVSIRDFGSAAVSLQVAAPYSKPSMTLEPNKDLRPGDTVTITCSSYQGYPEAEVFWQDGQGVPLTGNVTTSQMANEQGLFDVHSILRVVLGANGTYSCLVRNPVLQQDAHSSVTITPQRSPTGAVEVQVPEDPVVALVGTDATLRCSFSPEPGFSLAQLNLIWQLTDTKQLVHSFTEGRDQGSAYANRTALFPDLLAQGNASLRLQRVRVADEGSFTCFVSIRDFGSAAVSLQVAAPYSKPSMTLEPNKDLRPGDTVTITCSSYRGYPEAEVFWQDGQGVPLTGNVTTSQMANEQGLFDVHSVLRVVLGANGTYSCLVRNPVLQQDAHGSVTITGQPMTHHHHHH

[3] = target: T3, rat B7-H3 antigen protein (Sino Biologicals; Cat. No. 80380-R02H-20) (rat, UniProt Q7TPB4 29-248); assay: ELISA, antigen coated at 50 ng/well
T3 construct: Bought protein
T3 sequence (looked up): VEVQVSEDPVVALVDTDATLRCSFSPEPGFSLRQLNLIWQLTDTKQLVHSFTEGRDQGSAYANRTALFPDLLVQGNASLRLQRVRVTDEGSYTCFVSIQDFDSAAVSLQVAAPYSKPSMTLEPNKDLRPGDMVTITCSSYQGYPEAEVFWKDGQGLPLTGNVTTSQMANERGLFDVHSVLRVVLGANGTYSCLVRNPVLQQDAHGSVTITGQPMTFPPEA

Measured: binding result

B1: Enoblituzumab (B7-H3 Macrogenics; MGA271; MG-B7-H3) (antibody, human IgG1, kappa, V domains shown)
VH: EVQLVESGGGLVQPGGSLRLSCAASGFTFSSFGMHWVRQAPGKGLEWVAYISSDSSAIYYADTVKGRFTISRDNAKNSLYLQMNSLRDEDTAVYYCGRGRENIYYGSRLDYWGQGTTVTVSS
VL: DIQLTQSPSFLSASVGDRVTITCKASQNVDTNVAWYQQKPGKAPKALIYSASYRYSGVPSRFSGSGSGTDFTLTISSLQPEDFATYYCQQYNNYPFTFGQGTKLEIKR
notes: also called B7-H3 MG; Macrogenics' B7-H3
binds: all assays above
